Test results published in US7078174B1, “Screening methods using SOCS box-containing peptides” (The Walter & Eliza Hall Institute of Medical Research, priority 1998, dated 2006).
Values belong to the molecule of their own block, whether it stands above or below them.

Tests used:
[1] = target: T1, elongins B and C (Mus musculus, UniProt P62869+P83940); assay: Co-transfection of 293T cells with SOCS box proteins and elongins B and C, co-immunoprecipitation; assay type: binding; settings: anti-myc immunoprecipitation, anti-FLAG Western blot
T1 construct: expressed in transfected cells; host or cells: 293T human fibroblast cell line, vector pEF-BOS
T1 sequence (P83940 whole entry): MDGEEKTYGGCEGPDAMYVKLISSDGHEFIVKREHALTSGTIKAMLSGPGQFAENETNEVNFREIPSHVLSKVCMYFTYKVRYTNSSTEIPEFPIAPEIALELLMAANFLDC
T1 sequence (P62869 whole entry): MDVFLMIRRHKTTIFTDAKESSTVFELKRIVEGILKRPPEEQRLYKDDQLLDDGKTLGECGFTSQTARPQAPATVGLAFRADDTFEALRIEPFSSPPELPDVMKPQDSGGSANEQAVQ
Source text: The cDNAs encoding mouse SOCS-1, SOCS-3, WSB-1, SSB-1, ASB-1, have been described previously (1,8). Constructs in pEF-FLAG1 encoding these proteins, with or without the SOCS box, with an N-terminal FLAG epitope tag (DYKDDDDK) (SEQ ID NO:1) were generated by PCR essentially as described (8) (found at http://www.wehi.edu.au/willson vectors). DNA fragments encoding mouse elongins B and C were amplified using PCR from a 17-day embryo cDNA lambda library (Clontech ML5014t) and were expressed with N-terminal FLAG or myc (DQKLISEEDL) (SEQ ID NO:2) epitope tags, respectively, using the mammalian expression vector pEF-BOS.
The murine monocytic leukemic cell line, M1, and the 293T human fibroblast cell line were maintained and transfected as described (8).
(§1) Proteins were immunoprecipitated with anti-myc (9E10; WEHI) and protein A-Sepharose or anti-FLAG antibody conjugated to Sepharose (KM5-IC7; WEHI) and separated by sodium dodecyl sulphate-polyacrylamide gel electrophoresis (SDS-PAGE) (Biorad, Hercules, Calif.) under reducing conditions. Proteins were then electrophoretically transferred to PVDF-Plus membranes (Micron Separations Inc. WestBorough, Mass.) and Western blotted as described (8).

[2] = test system: elongin B, elongin C, cullin 2, JAK1, gp130; assay: Analysis of proteins interacting with SOCS-1 in unstimulated M1 cells (anti-FLAG affinity column, Western blot); assay type: binding, murine; settings: 10^9 unstimulated M1 cells, anti-FLAG affinity column eluate
Source text: The inventors passed lysates from 10^9 unstimulated M1 cells expressing FLAG-tagged SOCS-1 through an anti-FLAG affinity column which was then eluted with FLAG peptide. The eluate was then subjected to SDS-PAGE and the proteins were Western blotted. The blot was then probed with anti-FLAG antibodies to confirm the presence of SOCS-1 and with a range of antibodies against proteins thought to interact with SOCS-1 (FIG. 7). […] To determine whether proteins in this complex interact directly or indirectly with SOCS-1, or whether all the proteins can be found together in a single complex, or whether separate complexes are, for example, formed between SOCS-1, JAK-1 and gp130 on one hand and between SOCS-1, elongin B and C and cullin-2, is addressed in part by performing the primary immunoprecipitation using a different antibody.
Further, the nature of the complex is analyzed by repeating experiments using a mutant SOCS protein which lacks one or more domains. In the case described above, the inventors have performed an identical analysis using M1 cells expressing a FLAG-tagged mutant of SOCS-1 lacking the SOCS box. […] This type of experiment addresses whether interactions are direct or indirect. Further analysis involves approaches of the type described below.

[3] = target: T2, endogenous elongins B and C (Mus musculus, UniProt P62869+P83940); assay: Interaction of FLAG-tagged SOCS-1 with endogenous elongins in M1 cells (anti-FLAG resin, Western blot); assay type: binding, murine; settings: M1 cells stably expressing FLAG-tagged protein, anti-FLAG immunoprecipitation
T2 construct: endogenous in cells; host or cells: M1 murine monocytic leukemic cells
T2 sequence (P83940 whole entry): as the sequence (P83940 whole entry) above
T2 sequence (P62869 whole entry): as the sequence (P62869 whole entry) above
Description: Two liters of M1 cells stably expressing either full-length SOCS-1 or SOCS-1 lacking SOCS box (with N-terminal FLAG epitopes) were grown in DME containing 5% bovine calf serum, 10 μg/ml puromycin and 50 ng/ml murine IL-6. The cells were harvested and incubated in 20 ml of culture media containing 10 μM proteasome-specific inhibitor, N-acetyl-L-leucinyl-L-leucinyl-norleucinal (LLnL; Sigma, St. Louis, Mo.) for 30 min at 37° C. The cells were lysed in 14 ml of lysis buffer supplemented with protease inhibitors (Complete Cocktail tablets), 1 mM PMSF, 1 mM Na3VO4, 1 mM NaF and 10 μM LLnL. Total cell lysates were centrifuged at 15,000 rpm (SS34 rotor) for 15 min at 4° C. and the clarified supernatants incubated with 0.3 ml of M2 anti-FLAG antibody resin for 3 h at 4° C. Resin was then washed with 10 ml of lysis buffer and the bound proteins were eluted with 6×150 μl of 100 μg/m FLAG peptide in lysis buffer.
as §1

B1: WSB-2: N-terminally FLAG-tagged WSB-2 protein transfected into 293T fibroblasts (protein)
chain: DYKDDDDKMEAGEEPLLLAELKPGRPHQFDWKSSCETWSVAFSPDGSWFAWSQGHCVVKLVPWPLEEQFIPKGFEAKSRSSKNDPKGRGSLKEKTLDCGQIVWGLAFSPWPSPPSRKLWARHHPQAPDVSCLILATGLNDGQIKIWEVQTGLLLLNLSGHQDVVRDLSFTPSGSLILVSASRDKTLRIWDLNKHGKQIQVLSGHLQWVYCCSISPDCSMLCSAAGEKSVFLWSMRSYTLIRKLEGHQSSVVSCDFSPDSALLVTASYDTSVIMWDPYTGERLRSLHHTQLEPTMDDSDVHMSSLRSVCFSPEGLYLATVADDRLLRIWALELKAPVAFAPMTNGLCCTFFPHGGIIATGTRDGHVQFWTAPRVLSSLKHLCRKALRSFLTTYQVLALPIPKKMKEFLTYRTF
- co-immunoprecipitation with elongin C (and elongin B) [1]: found to co-immunoprecipitate along with elongin B with elongin C

B2: SSB-1: N-terminally FLAG-tagged SSB-1 protein transfected into 293T fibroblasts (protein)
chain: DYKDDDDKMGQKVTGGIKTVDMRDPTYRPLKQELQGLDYCKPTRLDLLLDMPPVSYDVQLLHSWNNNDRSLNVFVKEDDKLIFHRHPVAQSTDAIRGKVGYTRGLHVWQITWAMRQRGTHAVVGVATADAPLHSVGYTTLVGNNHESWGWDLGRNRLYHDGKNQPSKTYPAFLEPDETFIVPDSFLVALDMDDGTLSFIVDGQYMGVAFRGLKGKKLYPVVSAVWGHCEIRMRYLNGLDPEPLPLMDLCRRSVRLALGKERLGAIPALPLPASLKAYLLYQ
- co-immunoprecipitation with elongin C (and elongin B) [1]: found to co-immunoprecipitate along with elongin B with elongin C

- association with endogenous elongins B and C [3]: associated with bound elongins B and C
B3: full-length SOCS-1: N-terminally FLAG-tagged full-length mouse SOCS-1 stably expressed in M1 cells (protein)
chain: DYKDDDDKMVARNQVAADNAISPAAEPRRRSEPSSSSSSSSPAAPVRPRPCPAVPAPAPGDTHFRTFRSHSDYRRITRTSALLDACGFYWGPLSVHGAHERLRAEPVGTFLVRDSRQRNCFFALSVKMASGPTSIRVHFQAGRFHLDGSRETFDCLFELLEHYVAAPRRMLGAPLRQRRVRPLQELCRQRIVAAVGRENLARIPLNPVLRDYLSSFPFQI
- complex formation with elongin B, elongin C, cullin 2, JAK1 and gp130 [2]: capable of forming a complex with elongin B and elongin C, cullin 2, as well as JAK1 and gp130
